Results on 3 molecules are retold here after patent EP4692123A1, “ANTI-BCAM ANTIBODY AND ANTIBODY-DRUG CONJUGATE” (priority 2023, dated 2024).

Usually EC50 stands for the concentration at which the effect is half-maximal. Read a low EC50 as greater potency. As usually defined, the Kd is a measure of binding affinity in units of concentration. Usually koff stands for the first-order rate constant of dissociation. Low values mean a long-lived complex, high ones a short-lived complex. Usually kon stands for the rate constant with which the complex forms. A high value points to fast association. The term GI50 denotes the concentration at which growth is held to half of that of the control.

Values joined by “and” are separate entries in the source; they are usually repeats but may differ in a detail not shown here. Equal values may be shown once.

The target in assay [1] is T1, human BCAM antigen protein expressed on the cell surface (human, UniProt P50895 32-628).
T1 construct: whole, on cells; also called human BCAM expressed on the cell surface; BCAM on HEK293FT cells transfected with the 293FT/BCAM plasmid
T1 sequence (looked up): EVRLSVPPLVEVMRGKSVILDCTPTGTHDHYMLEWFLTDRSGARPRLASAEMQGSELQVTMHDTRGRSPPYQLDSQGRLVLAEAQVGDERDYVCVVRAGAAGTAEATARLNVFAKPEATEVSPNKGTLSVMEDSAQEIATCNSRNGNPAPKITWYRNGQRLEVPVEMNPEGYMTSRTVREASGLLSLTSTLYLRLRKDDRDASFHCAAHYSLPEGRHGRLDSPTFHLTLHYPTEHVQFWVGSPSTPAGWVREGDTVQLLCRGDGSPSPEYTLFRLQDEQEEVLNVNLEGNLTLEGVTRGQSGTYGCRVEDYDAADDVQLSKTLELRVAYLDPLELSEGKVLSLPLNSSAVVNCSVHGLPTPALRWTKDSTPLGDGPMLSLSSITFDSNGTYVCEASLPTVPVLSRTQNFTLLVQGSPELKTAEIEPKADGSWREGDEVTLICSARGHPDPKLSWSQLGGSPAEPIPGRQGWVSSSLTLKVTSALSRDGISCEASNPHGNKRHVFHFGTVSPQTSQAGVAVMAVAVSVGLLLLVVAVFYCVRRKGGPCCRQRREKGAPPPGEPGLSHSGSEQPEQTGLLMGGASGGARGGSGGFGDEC
Briefly: flow cytometry on HEK293FT cells transfected with human BCAM. On the technique in general: Flow cytometry measures light scatter and fluorescence of single cells or particles in a stream.

The target in assay [2] is T2, human BCAM protein (10238-H08H, SinoBiological, China) (human, UniProt P50895 32-547).
T2 construct: Bought recombinant protein; also called antigen protein; Lu
T2 sequence (looked up): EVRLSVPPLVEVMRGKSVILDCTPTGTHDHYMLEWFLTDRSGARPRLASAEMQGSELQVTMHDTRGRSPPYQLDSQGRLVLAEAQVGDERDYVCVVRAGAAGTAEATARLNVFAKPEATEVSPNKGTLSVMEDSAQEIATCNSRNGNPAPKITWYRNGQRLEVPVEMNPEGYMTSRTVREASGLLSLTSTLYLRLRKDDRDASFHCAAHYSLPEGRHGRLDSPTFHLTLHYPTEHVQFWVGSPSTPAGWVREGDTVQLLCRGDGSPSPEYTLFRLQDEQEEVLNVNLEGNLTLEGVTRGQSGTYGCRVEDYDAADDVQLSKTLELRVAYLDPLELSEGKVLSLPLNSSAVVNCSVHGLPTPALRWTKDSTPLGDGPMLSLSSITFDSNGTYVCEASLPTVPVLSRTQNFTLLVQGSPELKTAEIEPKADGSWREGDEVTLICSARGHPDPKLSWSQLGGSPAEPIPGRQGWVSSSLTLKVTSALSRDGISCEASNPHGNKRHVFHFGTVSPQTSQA
As to the kind of experiment: ELISA, plate coated with human BCAM, anti-human IgG Fc-HRP detection.

For assay [3], the target named is T2, human BCAM protein (10238-H08H, …). Briefly: BLI (Octet R8), human BCAM amine-coupled on AR2G biosensors, antibody in solution, 1:1 model.
The subject of another assay is DU145. Briefly: In vitro anticancer effect, CellTiter-Glo cell viability. Type of assay: cell-based, human. The conditions noted are these: DU145, 72 hours. Here is the method: (§1) An in vitro experiment was conducted to confirm the anticancer effect of the Ab-II antibody-drug conjugate produced in Example 4 on human cell lines that express high levels of BCAM.
(§2) 5 x 10^3 cells of SK-BR-3 (human breast cancer cell line, KCLB), OVCAR3 (human ovarian cancer cell line, KCLB), and DU145 (human prostate cancer cell line, KCLB) were seeded into a 96-well plate (3595, Corning, USA). The next day, after confirming cell attachment to the plate, the existing cell culture was removed. Ab-II, produced in Example 4, was serially diluted in cell culture medium from 1 µM in a 5-fold dilution series across 8 points (down to 12.8 pM), and 200 µL was added to each well. On the day of drug treatment, the luminescence of the negative control (0% control, untreated with the drug) was measured. The culture medium was removed, 100 µL of CellTiter-Glo® (Promega, USA) solution was added to each well, and after reacting for 10 minutes at room temperature, the luminescence was measured with a microplate reader (Synergy H1, Biotek, USA). The experimental group treated with the drug and the positive control group (100% control, untreated with the drug) were reacted for 72 hours in a 37°C CO2 incubator. Afterward, the culture medium was removed, 100 µL of CellTiter-Glo® solution was added to each well, and after reacting for 10 minutes at room temperature, the luminescence was measured with the microplate reader. The % cell viability for Ab-II was calculated by substituting into the formula: [(Ab-II treated group) - (0% control group)] / [(100% control group) - (0% control group)]. The GI50 (half-maximal growth inhibition concentration) value of Ab-II for each cell line was calculated using GraphPad Prism (GraphPad software Inc., USA) based on the % cell viability.

Another assay concerns OVCAR3. The assay is described as above. Type of assay: cell-based, human. The note with it: OVCAR3, 72 hours. On the procedure:
as §1, §2

Another assay has as its system SK-BR-3. The assay is described as above. It counts as cell-based, human. The note with it: SK-BR-3, 72 hours. Here is the method: as §1, §2
In assay [4] the target is T2, human BCAM protein (10238-H08H, …). As to the kind of experiment: ELISA, plate coated with 7 nM human BCAM, anti-human IgG Fc-HRP detection. For orientation: ELISA stands for enzyme-linked immunosorbent assay.

B1: Ab-I antibody (anti-BCAM human IgG4 antibody) (antibody, V domains shown)
VH: EVQLVESGGGLVKPGGSLRLSCAASGFTFSSYSMNWVRQAPGKGLEWVSSISSSSSYIYYADSVKGRFTISRDNAKNSLYLQMNSLRAEDTAVYYCARIIGGWLGDYWGQGTLVTVSS
VL: NIQMTQSPSSVSASVGDRVTITCRASQGISSWLAWYQQKPGKAPKLLIYAASSLRSGVPSRFSGSGSGTDFTLTISSLQPEDFATYYCQQANSFPPPTFGGGTKVEIK
notes: From a human scFv phage library, expressed in ExpiCHO-S
Turning to B1, the EC50 in assay [1] was 0.594 nM and 0.086 µg/mL. In assay [2], a half-maximal response (EC50) required 0.124 nM. In assay [3], binding was put at a Kd of 0.991 nM, the koff is 0.00216 s⁻¹ and the kon came to 2.18e+06 M⁻¹ s⁻¹.

B2: Ab-II (conjugate)
VH: B1 VH
VL: B1 VL
As for B2, the GI50 in the assay on DU145 was 17 nM; in the assay on OVCAR3, 0.35 nM; with SK-BR-3, 0.21 nM.

B3: Ab-II antibody-drug conjugate (antibody, DAR 5.3, V domains shown)
VH: B1 VH
VL: B1 VL
modifications: Compound 1 conjugated through its maleimide group to antibody cysteine side chains after partial reduction of the disulfide bonds; positions not given; DAR 5.3
notes: Calculated DAR 5.3; also called anti-BCAM antibody-drug conjugate Ab-II
Molecule B3 had an EC50 in assay [4] of 0.269 nM.
